Data: paper PMC8668096, “Investigating the role of the carbon storage regulator A (CsrA) in Leptospira spp”

Experiments:
rCsrA L. biflexa [1] = target: T1, rCsrA L. biflexa (Leptospira biflexa serovar Patoc, UniProt B0SQM8 1-79); test: EMSA; dose-dependent, 100-800 nM rCsrA, 1 nM RNA; 10 mM HEPES pH 7.3, 20 mM KCl, 1 mM MgCl2, 1 mM DTT (plus 10 mM DTT), 7.5% glycerol, 0.2 ug/uL yeast tRNA, 37 C 30 min; 10% native PAGE; conditions: protein: recombinant; tags: N-terminal 6xHis (pRSET-C); chain copies: 2; label: 5' biotin; hairpin (predicted, GGA-containing hexaloop)
T1 sequence: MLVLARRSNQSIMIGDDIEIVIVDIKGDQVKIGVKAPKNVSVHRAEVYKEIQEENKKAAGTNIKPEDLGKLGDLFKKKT

rCsrA L. biflexa [2] = target: T1, rCsrA L. biflexa; test: EMSA; no interaction, 100-800 nM rCsrA, 1 nM RNA; 10 mM HEPES pH 7.3, 20 mM KCl, 1 mM MgCl2, 1 mM DTT (plus 10 mM DTT), 7.5% glycerol, 0.2 ug/uL yeast tRNA, 37 C 30 min; 10% native PAGE; conditions: protein: recombinant; tags: N-terminal 6xHis (pRSET-C); chain copies: 2; label: 5' biotin

## UGGACACACAGGAGGGUGUGAC (structured_RNA) [LEPBIa_1872 WT (flaB3 upstream)]
rCsrA L. biflexa [1]
  binding result: binds

## UGGACACACAAAAGGGUGUGAC (structured_RNA) [LEPBIa_1872 Mut (GGA to AAA)]
rCsrA L. biflexa [2]
  binding result: no binding
